Assay results published in the nanobody polyreactivity screen of Harvey et al. (2022).

Test: yeast display, Sf9 membrane polyspecificity reagent, FACS + sequencing; frameworks hold sequencing errors
Procedure, shortened: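 Using colony PCR, genes from sorted yeast display clones were amplified, then sequenced on MiSeq at 2 × 250 and filtered by CDR length. The clones had been stained with 10% biotinylated, detergent-solubilized Sf9 membrane reagent for 1 hour at 4 °C and sorted by FACS into low and high (top ~1%) gates on anti-HA and streptavidin fluorescence. Polyreactivity labels come from the gate of origin.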

| Sequence | polyreactivity (PSR sort gate) |
| --- | --- |
| QVQLVESGGVLVQAGGSLRLSCAASGSIFDKAMGWSRQAPGKERELVSAITSGGITNYADSVKGRFTISRDNAKNTVYLQMNRLKPEDCAVYYCNTLSPTQTKYDYWGQGTQVSVSS | low polyreactivity |
| QVQLVESGGGLVQAGGSLRLSCAASGSICVRNAMGWYRQAPGKERELVAADSVKGRFTISRDNAKNTVYLQMNSLKPEDTAVYYCNKAYIIRRGPIVYYGFDYWGQGTQVTVSS | low polyreactivity |
| QVQLVESGGGLVQAGGSLRLSCAATGIIFSWYAMGWYRQAPVKERELVATISSGAHTYYADSVKGRFTISRDNAKNTVYLQMNRLKPEDTAVYYCGAANEFGVVWAQFDYWGQGPQVTVSS | low polyreactivity |
| QVQLVESGGGLVQAGGSLRLSCAASGGTLFTNAMGWYRQAPGKERELVAAISWRGGRTYYADSVKGRFTISRDNAKNTVYLQMNSLKPEDSAVYYCAADVSAVQGYYYWGQGTQVTVSS | low polyreactivity |
| QVQLVESGGGLFQAGGSLRLSCAASGSTFHYNNMGWYRQAPGKERELVAAISWLGDPTYYADSVKGRFTISRDNAKNTVYLQMNSLKPEDTSVYFCNAVRLSRYRPNPFGYGHWGQGTQVTVSS | high polyreactivity |
| QVQLVESGGGLVQAGGSLRLSCAASGIIFDDYAMGWYRQAPGKERELVAAISVSGGSTYNADSVKGRFTISRDNAKNTVYLQMNSLKPEDTAVYYCAARLIVGRFLRYDYWGQGTQVTVSS | high polyreactivity |
| QVQLVESGGGLVQAGGSLRLSCAASGLIFPRYTMGWYRQAPGKERELVAAIRGTGGSTYYADSVKGRFTISRDNAKNTVYLQMNSLKPEDTAVYYCATRGKSHGQQFNYWGQGTQVTVSS | high polyreactivity |
| QVQLVESGGGLVQAGGSLRLSCAASGITFTSYVMGWYRQAPGKERELVAAIRWSGGRTYYADSVKGRFTISRDNAKNTVYLQLNSLKPEDTAVYYCNRVTRSHVDYWGQGTQVTVSS | high polyreactivity |
| QVQLVESGGGLVQAGGSLRLSCAASVITSPYAMGWYRQAPGKERELVAAISWSGSSTYYADSVKGRFTISRDNAKNTVYLQINSLKPEDTAVYYCATLVSDSRSRRFGYEYWGQGSQVTVSS | high polyreactivity |
| QVQLVESGGGLVQAGGSLRLSCAASGSTFAGNAMGWYRQAPGKEREFVAAITISVGSTYYADSVKGRFTISRDNAKNTVYLQMNSLTPEDTAVYYCAADFAYYVSLPSRFVYAGYYYWGQGTQVTVTS | low polyreactivity |
| QVQLVESGGGLVQAGGSLRLSCAASGSIFGYYSMGWYRQAPGKERELVATITWGGGSTYADSVKGRFTISRDNAKNTVYLQMNSLKPEDTAVYYCNAGYRYTSAQVTWEYDYWGQGTQVTVSS | low polyreactivity |
| QVQLVESGGGLVQAGGSLRLSCAASGYTFYRYAMGWYRQAPGKERELVAGIDRSGTRTYYADSVKGRFTISRDNAKNTVYLQMNSLKPEDTAVYYCNAVAYYVSKYDYWGQGTQVTVSS | high polyreactivity |
| QVQHVESGGGLVQAGGSLRLSCAASGSTFGRYAMGWYRQAPGKERELVARISWGGGSTYYADSVKGRFTISRDNAKNTVYLQMNSLKPEDSAVYYCATRVYRSAVSYDYWGQGTQVTVSS | high polyreactivity |
| QVQLVESGGGLVQAGGSLRLSCAASGSIFRHNVMGWYRQAPGKERELVAAISGGGGRTYYADSVKGRFTISRDNAKNTVYLQMNSLKPEDTAVYYCNAYVGLSEGDYWGQGTQVTVSS | high polyreactivity |
| QVQLVESGRGLVQAGGSLRLSCAASGFIFNLYAMGWYRQAPGKERELVAAISGGGSTYYAYSVKGRFTISRDNAKNTVYLQMISLKPEDNAVYYCAKKGGHRTYGYDSWGQGTQVTVSS | low polyreactivity |
| QVLLVESGGGLVQAGGSLRLSCAASGRTFVYYTMGWDRQAPGKERELVAAINWRGTSTYYADSVKGRFTISRDNAKNTVYLQMNSLKPEDTAVYYCYAERNAGFDYWGQGTQVTVSS | high polyreactivity |
| QVQLVESGGGLVQAGGSLRLSCAPSGSTFGSNAMGWYRQAPGKERELVAAINSGDSTSYADSVKGRFTISRDNAKNTVYLQMNSLKPEDTAGYYCATRSYTFVWRHDYWGQGTQVTVSS | low polyreactivity |
| QVQLVESCGGLGQAGGSLRLSCSASGRIFGTYAKGLYRKAPGKERELLASISYSDGSTYADSVKGRFTISRDNAKNTVYLQMNSLKPEDTSVYYCAADVYYYAQSEDGYWGQGTQVTVSS | low polyreactivity |
| QVQLVESGGGLVQAGGSLRLSCAASGSTSVKYAMGWYRQAPGKERELVAAIRKRGDSTYYADSVKGRFTISRDNAKNTVYLQMNSLKPEDTAVYYCAAQYLRGRGYWGQGTQVTVSA | low polyreactivity |
| QVQLVESGGGLVQAGGSLRLSCAASGSTFYVYAMGWYRQAPGKERELVAAISSSGARTYYADSVKGRFTISRDNAKNTVYLQMNSLKPEDTAVYYCAARRYYKFYYWGQGTQVTVSS | high polyreactivity |
| QVQLVESGGCLVQAGGSLRLSCAASGRRVQTYAMGWYRQAPRKERELVAAISIRGGSTYYADSVKGRFTISRDNAKNTVYLQKNSLTPEDTAVYYCNALYGRQIVDYEYWGQGTQVTVSS | low polyreactivity |
| QVQLVESGGGLVQAGGSLRLSCAASGRTFFGYAMGWYRQAPGKERELVAAITSSGGRTYYADSVKGRFTISRDNAKNTVYLQMNSLKTEDTAVYYCNTVLSFRSVNIYRGRGDYWGQGTLVTVSS | high polyreactivity |

| Sequence | polyreactivity (PSR sort gate) |
| --- | --- |
| QFQLVESGGGLVQAGGSLRLSCAASGFIFSTYTMGWYRQAPGKERELVAAISSGGGTYYADSVKGRFTISRDNAKNTVYLQMNSLKPEDTAVYYCAALVYSSYPAGWYDYWGQGTQVTVSS | high polyreactivity |
| QVQLVESGGGLVQAGGSLRLSCAASGIIFRWYAMGWYRQAPGKERELVAGITSTTGTTYYADSVKGRFTISRDNAKNTVYLQMNSLKPEDTAVYYCAADYYCYTTAGVVDSFEYWGQGTQVTVSS | low polyreactivity |
| QVQLVESGGGLDQAGGSLRLSCAASGRTNAPYAMGWYRPAPGKERELVAAISGGGSTNYADSVKGRFTISRDNAKNSVYLQMNSLKPEDTAVYSCAADQYHGVGINFRSDYDYWGQGTQVTVSS | low polyreactivity |
| QVLLVESGGGLVQAGGSLRLSSAASGSIFVCNAMGWYRQAPGKERELVAAIRGVDSTYYGDSVKGRFTISRDNGKNTFFLQMNSLKPEDTAFYYCATLGPGFPRYYDWGQGTQVTVSS | high polyreactivity |
| QVQLVESGGGLVQAGGSLRLSCAASGSIFPYYAMGWYRQAPGKERELVARITWRSTSTYADSVKGRFTISRDNAKNTVYLQMNSLKPEDTAVYYCAVRLLSTYIIEYDHWGQGTQVTVSS | low polyreactivity |
| QVQLVESGGGLVQAGGSLRLSCAASGRIFRFNAMGWYRQAPGKERELVAAITSGVRTNYADSVKGRFTISRDNAKNTVYLQMNSLKPEDTAVYYCAASRHYPGYRRYDYWGQGTQVTVSS | high polyreactivity |
| QVQLVESGGGLVQAGGSLRLSCGASGRFFDDYAVGWYRQAPGKEREFVAAISRSGASTYYADSVKGRFTISRDNAKNTVYLQMNSLKPEDTAVYYCAARAGANYRMDYWGQGTQVTVSS | high polyreactivity |
| QVQLVESGGGLVQAGGSLRLSCAASGSTFSIYAMGWYRQAPGKERELVAAISFSDDSTYYADSVKGRFTISRDNAKNTVYLQMNSLKPEDTAVYYCAAEGYWGQPFDYDGALEYWGQGTQVTVSS | high polyreactivity |
| QVQLVESGGGLVQAGGSLRLSCAASGFTFYGYAMGWYRQAPGKERELVAAISSSGGRTYYADSVKGRFTISRDNAKNTVYLQMNSLKPEDTAVYYCAADYTSRDYYYWGQGTQVTVSS | high polyreactivity |
| QVQLVESGGGLVQAGGSLRLSCAASGRTFRINAMGWYRQAPGKERELVAAITYRGANTYYADSVKGRFTISRDNAKNTVYLQMNSLKPEDTAVYYCAAEYAYHHVGFGYWGQGTQVTVSS | low polyreactivity |
| QVQLVESGGGLVQAGGSLRLSCAASGSTFKRYAMGWYRQAPGKDRELVAAIRRGGITNYADSVKGRFTISRDNAKNTVYLQMNSLKPEDTAVYYCAKDGVTYPYSYEYDYWGQGTQVTVSS | low polyreactivity |
| QVQLVESGGGLVQAGGSLRLSCAASGFTLDRYAMGWYRQAPGKERELVAAITQSGVSTYYADSVKGRFTISRDNAKNTVYLQMNSLKPEDTAVYYCNALLRRTDYRYTWGYGYWGQGTQVTVSS | high polyreactivity |
| QVQLVESGGGLVQAGGSLRLRCADSGRNFVSNAMGWYRQAPGKERELVAAISKSGARTSYADSVKGRFTISRDNAKNTVYLQMNRLKPEDTAVYYCAAPVRWSGGGEYPNYYWGQGTQVTVSS | high polyreactivity |
| QVQLVESGGGLVQAGGSLRLSCAASGRIFSRYAMGWYRQAPGKERELVAVISRSGADTYYADSVKGRFTISRDNAKNTVYLQMNSLKPEDTAVFYCNAYSARRPHPMCYDSWGQGTQVTVSS | high polyreactivity |
| QVQLVESGGGLVQAGGSLRLSCAASGNTLQYYAMGWYRQAPGKERELVAAITTGGSTNYADSVKARFTISRDNAKNTGYLQMNSLKPEDTAVYYCAARGGVSKRISDYWGQGTQVTVSS | low polyreactivity |
| QVQLVESGGGLVQAGGSLRLICAASGFSFRYYDMGWYRQAPGKERELVAAISRSGGRTYYADSVKGRFTISRDNAKNSVYLQMNSLNPEDTAVYYCNAVYNVVLSRVIYARGYWGQGTQVTVSS | high polyreactivity |
| QVQLVESGGGLVQAGGSLRLAVLPPDLPSTLNDMGWYRQAPGKERELVAAITRGGSTNYADSVKGRFTISRDNAKNTVYLQMNSLKPEDTAVYYCAAPYAGWRDGGDYWGQGTQVTVSS | low polyreactivity |
| QVQLVESGGGLVQAGGSLRLSCAASGRIFEYYAMGWYRQAPGKERELVAAINTGGNTYYADSVKGRFTLSRDNAKNTVYLQMNSLKPEDTAVYYCATYPIWYCGYLSGTDYDYWGQGTQVTVSS | low polyreactivity |
| QVQLVESGGGLVQAGGSLRLSCAASGIIFYRYAMGWYRQAPGKERELVARITSSTGSTYYADSVKGRFTISRDNAKNTVYLQMNSLKPEDTAVYYCNARRQRNKSYNYWGQGTQVTVSS | high polyreactivity |
| QVQLVESGGGLVQAGGSLRLSCAASGSTFWANAMGWYRQAPGKERELVAAITSTGITYYADSVKGRFTISRDNAKNTVYLQMNSLKPEDTAVYYCAADGYRYSVYLIRNPMDYWGQGTQVTVSS | low polyreactivity |
| QVQLVESGGGLVQAGGSLRLSCAASGRTFSYYTMGWYRQAPGKERELVAAITSSGGSTYYADSVKGRFTISRDNAKNTVYLQMNSLKPEDTAVYYCAVLNYAGKYYYWGQGTQVTVSS | high polyreactivity |
